{"source": "IntAct's records for PubMed 14504388", "parents": {"B1": {"name": "Protein phosphatase 2C 77 (Arabidopsis thaliana (Mouse-ear cress)), O04719 (parent)", "chain": "MDEVSPAVAVPFRPFTDPHAGLRGYCNGESRVTLPESSCSGDGAMKDSSFEINTRQDSLTSSSSAMAGVDISAGDEINGSDEFDPRSMNQSEKKVLSRTESRSLFEFKCVPLYGVTSICGRRPEMEDSVSTIPRFLQVSSSSLLDGRVTNGFNPHLSAHFFGVYDGHGGSQVANYCRERMHLALTEEIVKEKPEFCDGDTWQEKWKKALFNSFMRVDSEIETVAHAPETVGSTSVVAVVFPTHIFVANCGDSRAVLCRGKTPLALSVDHKPDRDDEAARIEAAGGKVIRWNGARVFGVLAMSRSIGDRYLKPSVIPDPEVTSVRRVKEDDCLILASDGLWDVMTNEEVCDLARKRILLWHKKNAMAGEALLPAEKRGEGKDPAAMSAAEYLSKMALQKGSKDNISVVVVDLKGIRKFKSKSLN", "partner": "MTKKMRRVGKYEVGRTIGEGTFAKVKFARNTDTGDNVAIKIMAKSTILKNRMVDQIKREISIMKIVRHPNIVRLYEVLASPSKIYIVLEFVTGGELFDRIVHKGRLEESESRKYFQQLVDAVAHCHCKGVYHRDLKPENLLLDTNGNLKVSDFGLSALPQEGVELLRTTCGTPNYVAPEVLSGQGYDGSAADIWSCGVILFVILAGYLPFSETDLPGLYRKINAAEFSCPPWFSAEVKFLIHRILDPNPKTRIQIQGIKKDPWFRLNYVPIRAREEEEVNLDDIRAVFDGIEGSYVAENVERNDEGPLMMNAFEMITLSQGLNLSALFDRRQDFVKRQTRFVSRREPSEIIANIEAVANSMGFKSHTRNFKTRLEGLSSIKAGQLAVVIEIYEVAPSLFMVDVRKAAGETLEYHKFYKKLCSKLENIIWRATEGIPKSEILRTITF"}, "B2": {"name": "CBL-interacting serine/threonine-protein kinase 24 (Arabidopsis thaliana (Mouse-ear cress)), Q9LDI3 (parent)", "chain": "B1 partner"}}}
{"variants_of": "B1", "conditions": "with cipko_arath CIPK24, Q9LDI3"}
{"variant": "MDEVSPAVAVPFRPFTDPHAGLRGYCNGESRVTLPESSCSGDGAMKDSSFEINTRQDSLTSSSSAMAGVDISAGDEINGSDEFDPRSMNQSEKKVLSRTESRSLFEFKCVPLYGVTSICGRRPEMEDSVSTIPRFLQVSSSSLLDGRVTNGFNPHLSAHFFGVYDGHDGSQVANYCRERMHLALTEEIVKEKPEFCDGDTWQEKWKKALFNSFMRVDSEIETVAHAPETVGSTSVVAVVFPTHIFVANCGDSRAVLCRGKTPLALSVDHKPDRDDEAARIEAAGGKVIRWNGARVFGVLAMSRSIGDRYLKPSVIPDPEVTSVRRVKEDDCLILASDGLWDVMTNEEVCDLARKRILLWHKKNAMAGEALLPAEKRGEGKDPAAMSAAEYLSKMALQKGSKDNISVVVVDLKGIRKFKSKSLN", "note": "[G168D]", "effect of a mutation on the interaction": "decreasing interaction"}
{"variant": "MDEVSPAVAVPFRPFTDPHAGLRGYCNGESRVTLPESSCSGDGAMKDSSFEINTRQDSLTSSSSAMAGVDISAGDEINGSDEFDPRSMNQSEKKVLSRTESRSLFEFKCVPLYGVTSICGRRPEMEDSVSTIPRFLQVSSSSLLDGRVTNGFNPHLSAHFFDVYDGHGGSQVANYCRERMHLALTEEIVKEKPEFCDGDTWQEKWKKALFNSFMRVDSEIETVAHAPETVGSTSVVAVVFPTHIFVANCGDSRAVLCRGKTPLALSVDHKPDRDDEAARIEAAGGKVIRWNGARVFGVLAMSRSIGDRYLKPSVIPDPEVTSVRRVKEDDCLILASDGLWDVMTNEEVCDLARKRILLWHKKNAMAGEALLPAEKRGEGKDPAAMSAAEYLSKMALQKGSKDNISVVVVDLKGIRKFKSKSLN", "note": "[G162D]", "effect of a mutation on the interaction": "decreasing interaction"}
{"variants_of": "B2", "conditions": "with ABI2, O04719"}
{"variant": "MTKKMRRVGKYEVGRTIGEGTFAKVKFARNTDTGDNVAIKIMAKSTILKNRMVDQIKREISIMKIVRHPNIVRLYEVLASPSKIYIVLEFVTGGELFDRIVHKGRLEESESRKYFQQLVDAVAHCHCKGVYHRDLKPENLLLDTNGNLKVSDFGLSALPQEGVELLRTTCGTPNYVAPEVLSGQGYDGSAADIWSCGVILFVILAGYLPFSETDLPGLYRKINAAEFSCPPWFSAEVKFLIHRILDPNPKTRIQIQGIKKDPWFRLNYVPIRAREEEEVNLDDIRAVFDGIEGSYVAENVERNDEGPLMMNAFEMITLSQGLNLSALFDRRQDFVKRQTAAVSRREPSEIIANIEAVANSMGFKSHTRNFKTRLEGLSSIKAGQLAVVIEIYEVAPSLFMVDVRKAAGETLEYHKFYKKLCSKLENIIWRATEGIPKSEILRTITF", "note": "[R340A;F341A]", "effect of a mutation on the interaction": "decreasing interaction"}
